In a protein production outcome set (Wang et al. 2014) one finds protein production data, which are given here for 18 sequences.
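Further: failed if final PepcDB status was selected cloned or expressed and not failed if soluble or beyond.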

The data set is described as follows: label from the status in PepcDB records.
Consider “DAPQGAVIILPGDAESPDWPDTVGPLRRKFPDVGWSSLSITLPDAQDNTLLPREPDAAAGDANAAKPEETPKDAAAKAPDPAAEAEALAAVATAKAAADEERNKAQAELIFARIESAISFAQQNKARNIVLLGHSSGAYWAARFLNERPSPAVQKLVMVAA”, for which the protein production entry is “failed”.

Regarding “MLERLKRIHYMFWISLIFMIFPILSVVTGWLSAWHLLIDILFVVAYLGVLTTKSQRLSWLYWGLMLTYVVGNTAFVAVNYIWFFFFLSNLLSYHFSVRSLKSLHVWTFLLAQVLVVGQLLIFQRIEVEFLFYLLVILTFVDLMTFGLVRIRIVEDLKEAQVKQNAQINLLLAENERSRIGQDLHDSLGHTFAMLSVKTDLALQLFQMEAYPQVEKELKEIHQISKDSMNEVRTIVENLKSRTLTSELETVKKMLEIAGIEVQVENHLDKSSLTQELESTASMILLELVTNIIKHAKASKVYLKLERTEKELILTVRDDGCGFASISGDELHTVRNRVFPFSGEVSVISQKHPTEVQVRLLYKERK”, the protein production entry is “failed”.

In the case of “MSLSGTDIHTSDYYFLFEEKFRGSRELVKARLRRYIPYFKGCRRVLDIGCGRGEFLELCKEEGIESIGVDINEDMIKFCEGKFNVVKSDAIEYLKSLPDKYLDGVMISHFVEHLDPERLFELLSLCYSKMKYSSYIVIESPNPTSLYSLINFYIDPTHKKPVHPETLKFILEYLGFRDVKIEFFEECEELTKLAKIDSNTVSEEVIRVINENIEKLNRILFGPQDYAIIAKKEGHHHHHH”, the protein production result is “not failed”.

On to “SDWLWQTDAHGRLVHVPERFVEVAKLPPSLLIGAPLADVIGMLCPEDGRCAMGVAAKMAQREPMNDLVVHVVIGGTPRLWSLTAKPMFDAAGEFAGYRGVGRDVTERWRAEQAEAENRAKSSFLAMMSHEIRTPMNGVLGLANSLLETK”, for which the protein production result was “failed”. Consider “MFPSFITHIQSPNSHHHYSSPSFPFSSDFLESFDESFLINQFLLQQQDVAANVVESPWKFCKKLELKKKNEKCVDGSTSQEVQWRRTVKKRDRHSKICTAQGPRDRRMRLSLQIARKFFDLQDMLGFDKASKTIEWLFSKSKTSIKQLKERVAASEGGGKDEHLQVDEKEKDETLKLRVSKRRTKTMESSFKTKESRERARKRARERTMAKMKMRLFETSETISDPHQETREIKITNGVQLLEKENKEQEWSNTNDVHMVEYQMDSVSIIEKFLGLTSDSSSSSIFGDSEECYTSLSSVRGTISAAGNSNVLTKNPN”, for which the protein production entry is reported as “failed”. With “MDINYERPDPYYLLNKIDKEEKNKNRGKLKIFFGYAAGVGKTYAMLRAAHYMKELGKDIVIGYIEPHARMDTMSLTKGLPQIPVKNIDYKGVILREFDVDKALLRKPEIILVDELAHTNAKSQRNKKRWKDIEELLDAGIDVYTTLNVQHIESLNDIVANITHVSVRETIPDKVFDDADKVELIDIEPDELLKRFTDGKIYRKEQVKRAFNNFFTKNNLYALREIALRRTADRVNFEIEIARLSKGQITVMATSDQILACIGTSPSSARIIRTAARMAESYHSKWIALYVDTGRSLGKADKETLNANFNLVELLGGELVTVHGENVADQIIRYAELRNTTKIVIGKNHKRTGTLLHFYAKDVVDKLMDSNSYIDVYMIPNSSYYRDHKNSILSKISIQHKGSVKDVLKAIIIMAITTDIAELFSYMGFKDVNVIMIFILGVIIVYMATKGQIMGIISSIAAVLVFNYRFTEPKNSFIVYDKSYLVTFPIMMIVAFIIGSLTNKVQKEAQDSNMREKRTQTLYIVSGKLLSAVGTSEVVSIGIKYISRLVNRNVICYLADTSNKLSTPFVYKKDKGAKEEIIMSKDENAAAYWTFLNGKESGCGTSTFYRAKGYYIPIKIKNKVLGVIGVSCPSGPLRPQKKAVVDTVTGQIAIALDREILSKEQEKSKVEIERERLRSNLLRSISHDLRSPLAGIKGAASTILENGELIDEKRKQELINGIYEDTEWLIRLIENLLSMTKFDEGNTKIKKDVELVEEVVSEAVQRSSKYFKNHKIKVSVPEDVIMVSMDGSLIEQVIINLLDNASKFSPKGSTIEIKVYEKKKDVVFEIIDEGQGISEDILPNIFDRFFTNGSKISDSRRGVGLGLAICKSIVEAHGGKIEAVNKGSGGAIFKFNIPKEL”, the protein production result is “failed”. Under “MSDRRAPLVLEVDGVRHPLTPPGLTIGRGSDADIRINDPGISRLHARINVWPQGNDIGLSIEDLDSTNGVTVNGVKVTSTELGDGSRIEIGSTRMLVHSPTRILEHHHHHH” stands “failed”; under “MNINENASQYIPHEAPMVFVDDLIEIFDQGALASLTIRPELLFCTAQGLPSWTSIELMAQTISAYSGRNGRQRGHTPRIGFLLGTRKLNLPVAFFELGSTLIIRIEQQYLHEGLGQFACEIEYQAHKISALLSVYEPTVDQDNKENT”, “failed”; under “MELGTPLLLTIAAAGIALLLVLIIRFKIQAFVALLAVSILVAVAAQIPLKDIFTVVTTGVGSTMGKVALLIALGAILGRMIEVSGGVQSLATHFTEKLGAKRVAIALTAVGFLVAIPVFFEVGVIVLVPIVYAFAKIANVHPIKFGLPMAGIMLSIHVAVPPHPGIVAGAGVFGADIGLITLISLIICIPLGFLSYWVASIMNRKDYELLPGVKQQVDEFGSDSLVHVGHDGPGARAIAPPRPGLIMFLIAAPIVQILLGTVGTLTLAKDNYWYGVAAFIGNPFFALLVAVALSFFLLAVRRNWSLKETGEIFEGALPPIASILMVVAAGGVFGEVLRASGIGAALSHTLDSLGLPVIVLGFIISLALRAAQGSATVAIVTTTGLLTSAVMEGGYTPAQIAVIVIAIGFGSLGLSHVTDAGFWTVIRYYGLTVSDGLKTWTVLTTILGLAGFALTYVAWILVGGLGH”, “failed”.

For the sequence “MAGFISNFFGVGDSDSQYEEPTEASQAAAPTESATNTRSTPKVVPMQGGKSVNSKIALFEPKIYSDVKEIATQLLKNQAVIINFDHVDDEMARRIVDFLTGTVFAINGEIERIGDEIFLCIPENYEVSGSTTSQFDTSKLLEHHHHHH”, the protein production result is “not failed”.

Take “MTRAKAPMEGVKLNSLLKVEDFATQSQFLGVNPIWNNNSTQLVEPPSIVNDEEEETEPLLPVEFTLVERNLEDGLVEEIIFSSGGEIDVYDLQGLCDKVGWPRRPLVKLAAALKNSYMVATLHSVMKSSSDSDSSEGGDGEKQQEKKLIGMARATSDHAFNATIWDVLVDPEYQGQGLGKALVEKLVRALLQRDIGNISLFADSQVVDFYQNLGFEADPEGIKGMFWYPK”: the protein production entry is recorded as “failed”. Take “MAEATSALRKPVFTKVNELRPGTNGHSLNVKVVNTKMVMQRGGGRPMGPQSRQMRIAECLVGDETGIIIFTARNDQVDMMKEGSVVTLRNAKIDMYKGSMRLAVDRWGRVEVAEEPTDITVKDDNNLSLIEYELVSVET”: the protein production result is listed as “failed”. For the sequence “MDILDLNKAQAVQQNEQEVEDKERESKEPVVLEDLSALAWLELEEFSRLSGLPKERILELVNLGKIKSKISSNKLLIDASSGTNALIKKVENSLISMDMNGRSLEPVFVEKTINTILNLHDKVIGAKDETISAFKNENMFLKDALISMQEVYEEDKKTIDLLRDELNQAREEIEFMKRKYRLMWGKVADMSSVNKK”, the protein production entry was “failed”. In the case of “MSKGYGVFGHVPDNADDDDLLPYEDDDSGVSWGHALRRRNPWKRGGDEGADYDDDRYGADDTDDTDDTNEDRSLFAGKSSGIGGISGEADGMLGGAGAAGSRAVTFGGTDSLSAADAVMPYRFRQGRSVWFEDEDEGHFAGAAKRAEAHAVPILALRNDVESSSSNAVLARARSIARKAATMVINPVYSENHRTGYAELDGILRGTTSPSSKYRTSVQFDLDTGEAVGGKCSCPAYGRGYGMCKHMIALAFIFCDDPQRFEGYRAGAVRPSRTLIDYMEHVDRQDAQAKARRRNALMRRFDTAKGRNGAGGRHTNSGYGSRAGTRGGGYQGDSETVGLGQVQLVPILSFIDGVWSVEFKIGSTSNGSSYVLKSIPQFVLTMANGDYTDYGQKLAFTHTPDMFDDDSRPLLGFLDDAMAVRRAAEQQDRYYGHIAIDRHLTLSAPEVARLLSVREGRGVQLVLNTWFSGQPASVPVDGGEPDFLMRIARRDFNTYGPDAGYLLTGVPAVETVIDGGKNVWLLLASANPAGVVSAMMAGSQRKSAAGCRFVRCPKRLIPLRGLLGDMFEPDGEGQVIAGDDIALFARTLLPQLVGAGLLEASEIPRELAELSPTECSLQFYLDRDEHGVQCEVKARYGDAIVPLLPDGPTVHARDERSIPLSRGVIGRDFDAEHLAIDVVREFFTMPDQRKRVAAATHQTVNGFRTPAARKTAKQFVPDAATIDRDDTTQIVRLFDEGLPALKEVGEVFTTPAFDRLIAPKPPSVKVGLSIKGNLVEISPLADEVPPDEVGALLSSYRRRQRFHQLKDGTLVKLSGANLSTLDRLASDLDLSEQQLNSGLIELPGGRAFLLDGELPDDGSDVVKDASFTEYIDDLKIIDPKSYEVPDSLKHILRPYQVEGFQWLNTLCDKGFGGILADEMGLGKSVQLIALLLSRYHNESSGMPTAQGMDAGNAGNSESAVTGHITFDSEDGGSHPSLIVCPASLVYNWGAEFAKFAPSFNAVVVAGTKAERRTAIGRAFRADEPTVLITSYDLLRRDVDDYTANEQRFNVMALDEAQYIKNHTTKIAKAVKAVAADHRFALTGTPIENRLSELWSIFDFLMPGLLGSYKRFHERYELPISNARAADGSTAEGRAAAQVNPEAARVSRQLQSLVGVFIKRRLKSQVLTDLPDKLETTLTVQLAGEQRKLYAAHEQRLRMQLEHSEEADFNTSKIRILAELTKLRQICCDPRLLYADAKDQSAKLAAITELVETCVNEGKKALIFSQFTSFLDLIAERFDAQGLRYYTITGSTPKKKRLELVDQFNADDTPAFLISLKAGNTGLNLTGASVVIHADPWWNAAAQDQATDRAHRIGQTEDVNVYQVVAKDTIEERILELQHTKSELARQFTDASLLADEAGTGASALTEAPASIATLTKDDLLNLLG”, the protein production result is listed as “failed”. The result for “MSDKYYRSAYMNVDLNAVASNFKVFSTLHPNKTVMAVVKANAYGLGSVKVARHLMENGATFFAVATLDEAIELRMHGITAKILVLGVLPAKDIDKAIQHRVALTVPSKQWLKEAIKNISGEQEKKLWLHIKLDTGMGRLGIKDTKTYQEVIEIIQQYEQLVFEGVFTHFACADEPGDMTTEQYQRFKDMVNEAIKPEYIHCQNSAGSLLMDCQFCNAIRPGISLYGYYPSEYVQQKVKVHLKPSVQLIANVVQTKTLQAGESVSYGATYTATDPTTIALLPIGYADGYLRIMQGSFVNVNGHQCEVIGRVCMDQTIVKVPDQVKAGDSVILIDNHRESPQSVEVVAEKQHTINYEVLCNLSRRLPRIYHDGDQRFVTNELLK” reads “not failed”; that for “LSQNTLAENIYNIIISDISRKWALKDISDSLYMSCSTLKRKLKQEHTSFSEVYLNARMNKATKLLRNSEYNITRVAYMCGYDSASYFTCVFKKHFKTTPSEFLAFLSSSRHQ”, “failed”. For the sequence “MNTIKLKKNALFNPEGDTDLRHRRMIGGNTTNLNDFNNMRYKWVSDWYRQAMNNFWIPEEINLTQDTKDYPHLDQAERTAYDKILSFLVFLDSLQSNNLPTISEYITANEVNLCLHIQAFQECVHSQSYSYMLDSICSPEKRNEILYQWKTDGHLLKRNTFIGNCYNEFQESQDGFTLMKTLIANYILEGIYFYSGFMFFYNLSRNGKMSGSAQEIRYINRDENTHLWLFRNIILELKKEEPDLFTPDKVKIYEYMMREGVKQEIEWGQYVIGDNIQGLNRKMIEDYIQYLGNLRWSSLGFGPLYEENHKEPESMHWVSQYSNANMVKTDFFEAKSTAYAKSTALEDDL”, the protein production entry is “failed”.

As for “MDDERTVRSEVHVVVEDGEIVAIEDGYASGDEVVDATEEVVIPGLVNCHTHMYALPIRGAPLAASPESFYEALVDIWWNVDEAFTERDARLSALGSSVEMLQSGVTTFCDNYSGPNTLPGGLDAVAEGVAQTPIRGMITFETTARNSEAQARDGIAENQRFIDEAEDQYDTVSGHYCLHTLFTNTEDIVAECVDRATDDNRPIQIHLEEGLVDVHESIADYGERPVFALEDMGFFDAEVIAAHCVHSTESEIEVLAEHDVNVAHNPYSNINNAVGIADVETMQAHEMTIGLGDDGWDPDMFETMRSAVGIHKLKQRNPSGFDMATALEWATIGSAAVLGMDDAVGSIEVGKRGDFVTLDLGPNPVLDGSAPYYVVSAASRADVTRTIIDGESVYDQQSGVTGVDDSDMTAVGDASAELWERL”, the protein production result was “failed”.
